In general, Kd refers to the free concentration of one partner at which half of the binding sites on the other are occupied at equilibrium, for simple one-to-one binding. Higher therefore signals lower affinity.

The chains are these.
T1: C-term scPolη (a.a. 515~632) HH568,572AA, GST fusion (S. cerevisiae, UniProt Q04049 515-632, HH568,572AA | HH568,572AA)
T1 sequence (looked up): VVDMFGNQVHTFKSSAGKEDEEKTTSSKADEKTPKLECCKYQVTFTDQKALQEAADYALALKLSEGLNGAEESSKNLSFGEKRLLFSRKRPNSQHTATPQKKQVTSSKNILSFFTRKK

T2: C-term scPolη (a.a. 515~632) CC552,553AA, GST fusion (S. cerevisiae, UniProt Q04049 515-632, CC552,553AA | CC552,553AA)
T2 sequence (looked up): T1 sequence (looked up) with C38A, C39A, A54H, A58H

T3: UBZ-CN (a.a. 515~615) of S. cerevisiae Polη, GST fusion (S. cerevisiae, UniProt Q04049 515-615)
T3 sequence (looked up): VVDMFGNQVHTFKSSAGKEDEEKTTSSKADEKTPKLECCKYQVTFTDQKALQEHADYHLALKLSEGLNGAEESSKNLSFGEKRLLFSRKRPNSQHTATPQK

B1: UBZ-N (a.a. 515~580) of S. cerevisiae Polη, GST fusion (domain or fragment, UniProt Q04049 515-580, looked up)
chain: VVDMFGNQVHTFKSSAGKEDEEKTTSSKADEKTPKLECCKYQVTFTDQKALQEHADYHLALKLSEG
B2: UBZ-C (a.a. 545~608) of S. cerevisiae Polη, GST fusion (domain or fragment, UniProt Q04049 545-608, looked up)
chain: EKTPKLECCKYQVTFTDQKALQEHADYHLALKLSEGLNGAEESSKNLSFGEKRLLFSRKRPNSQ
B3: ubiquitin (S. cerevisiae) (natural protein)
chain: not shown

Common to all, as to experiment: SPR
(SPR reads the build-up and loss of mass on a sensor chip optically.)

For experiment [1], the target named is B3.
Experiment [2] has as its target T1, C-term scPolη (a.a. 515~632) ….
For experiment [3], the target named is T2, C-term scPolη (a.a. 515~632) ….
For experiment [4], the target named is T3, UBZ-CN (a.a. 515~615) of S. cerevisiae ….
The target of experiment [5] is B3. The source holds these as a separate data set.

Substitutions are numbered along the chain they refer to. Names and notes keep the numbering of the source. Where two headings read alike, the source gives them in different places.

B1 returned a dissociation constant Kd in experiment [1] of 18.2 ± 2.2 µM.

In experiment [1], B2 displayed a dissociation constant Kd of 15.8 ± 3.7 µM.

Turning to B3, the Kd was found to be 0.59 ± 0.14 µM in experiment [2], 0.3 ± 0.1 µM in experiment [3] and 11.1 ± 1.8 µM in experiment [4].

Regarding EKTPKLECCKYQVTFTDQKALQEHADYHLALKLSEG (domain or fragment, UniProt Q04049 545-580, looked up) [minimal S. cerevisiae Polη UBZ domain (a.a. 545–580) with N-terminal GST tag, wild type], the affinity in experiment [5], expressed as Kd, was 14.6 ± 2.5 µM.

As for EKTPKLECCKYQVTFTDQKALQEHADYHLPLKLSEG (domain or fragment, S. cerevisiae, UniProt Q04049 545-580, looked up) [scPolη UBZ domain (a.a. 545–580) A574P, GST fusion], the Kd in experiment [5] came to 55.3 ± 5.5 µM.

In turn, EKTPKLEAAKYQVTFTDQKALQEHADYHLALKLSEG (domain or fragment, S. cerevisiae, UniProt Q04049 545-580, looked up) [scPolη UBZ domain (a.a. 545–580) CC552,553AA, GST fusion] yielded a Kd in experiment [5] of 22.3 ± 4.1 µM.

Take EKTPKLECCKYQVTFTDQKALQEAADYALALKLSEG (domain or fragment, S. cerevisiae, UniProt Q04049 545-580, looked up) [scPolη UBZ domain (a.a. 545–580) HH568,572AA, GST fusion]: the Kd in experiment [5] is 22.2 ± 4.8 µM.

In experiment [5], EKTPKLECCKYQVTFTDQKALQEHADYHLFLKLSEG (domain or fragment, S. cerevisiae, UniProt Q04049 545-580, looked up) [scPolη UBZ domain (a.a. 545–580) A574F, GST fusion] displayed a Kd of 38.6 ± 8.6 µM.

In turn, EKTPKLECCKYQVTFTDQKALQEHAAYHLALKLSEG (domain or fragment, S. cerevisiae, UniProt Q04049 545-580, looked up) [scPolη UBZ domain (a.a. 545–580) D570A, GST fusion] had a Kd in experiment [5] of 23.6 ± 2.4 µM.

EKTPKLECCKYQVTFTDQKALPEHADYHLALKLSEG (domain or fragment, S. cerevisiae, UniProt Q04049 545-580, looked up) [scPolη UBZ domain (a.a. 545–580) Q566P, GST fusion] displayed a Kd in experiment [5] of 48.4 ± 7.2 µM.

In turn, EKTPKLECCKYQVTFTDQKALQEHPDYHLALKLSEG (domain or fragment, S. cerevisiae, UniProt Q04049 545-580, looked up) [scPolη UBZ domain (a.a. 545–580) A569P, GST fusion] gave a Kd in experiment [5] of 43.1 ± 10.2 µM.

(Values after paper PMC3228521 (Molecular bioSystems, 2011).)
